# Laboratory results as given in US20200079833A1 (AstraZeneca / MedImmune, published 2020).
# Starred links: 1 amine or outer side, 2 acyl side, 3 side chain; linkers in the order of their positions; H or OH if unused. Non-standard residues stand in square brackets, D forms with d. Groups on a side chain read outwards from the residue. Primed or numbered codes have the meaning given here. No end group written: not given here. *: point of attachment. γGlu = O=C(O)[C@H](CCC(=O)[*:2])N[*:1]; Stearoyl = CCCCCCCCCCCCCCCCCC(=O)*; Palmitoyl = CCCCCCCCCCCCCCCC(=O)*; αMeF = C[C@](N)(Cc1ccccc1)C(=O)O; αMeK = C[C@](N)(CCCCN)C(=O)O; αMeS = C[C@](N)(CO)C(=O)O; PEG2′ = not defined here; Aib = CC(C)(N)C(=O)O; Ahx = NCCCCCC(=O)O
# T1: glucose-dependent insulinotropic peptide (gastric inhibitory polypeptide) receptor (GIPR) (human, UniProt P48546 22-466)
# T1 sequence (looked up): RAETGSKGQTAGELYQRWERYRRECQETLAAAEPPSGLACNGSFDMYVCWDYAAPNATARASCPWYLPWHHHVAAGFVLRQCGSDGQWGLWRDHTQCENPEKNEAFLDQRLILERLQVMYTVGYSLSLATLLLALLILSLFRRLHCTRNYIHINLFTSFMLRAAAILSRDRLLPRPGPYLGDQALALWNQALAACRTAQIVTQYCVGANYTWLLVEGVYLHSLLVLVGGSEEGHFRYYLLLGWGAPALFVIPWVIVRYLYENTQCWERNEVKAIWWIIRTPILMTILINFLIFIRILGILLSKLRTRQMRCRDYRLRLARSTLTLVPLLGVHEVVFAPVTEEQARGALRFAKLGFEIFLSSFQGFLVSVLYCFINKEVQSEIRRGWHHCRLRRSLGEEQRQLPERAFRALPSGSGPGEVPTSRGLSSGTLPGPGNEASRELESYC
# B1: SEQ ID NO 81 (peptide)
# peptide: H[Aib]EGS[αMeF]TSDV[αMeS]S[αMeF]LEGEAK([γGlu-Palmitoyl])[αMeK]E[αMeF]IA[αMeF]VV[αMeK]GG-NH2
# modifications: N-terminus assumed
# SMILES: CCCCCCCCCCCCCCCC(=O)N[C@@H](CCC(=O)NCCCC[C@H](NC(=O)[C@H](C)NC(=O)[C@H](CCC(=O)O)NC(=O)CNC(=O)[C@H](CCC(=O)O)NC(=O)[C@H](CC(C)C)NC(=O)[C@](C)(Cc1ccccc1)NC(=O)[C@H](CO)NC(=O)[C@](C)(CO)NC(=O)[C@@H](NC(=O)[C@H](CC(=O)O)NC(=O)[C@H](CO)NC(=O)[C@@H](NC(=O)[C@](C)(Cc1ccccc1)NC(=O)[C@H](CO)NC(=O)CNC(=O)[C@H](CCC(=O)O)NC(=O)C(C)(C)NC(=O)[C@@H](N)Cc1c[nH]cn1)[C@@H](C)O)C(C)C)C(=O)N[C@@](C)(CCCCN)C(=O)N[C@@H](CCC(=O)O)C(=O)N[C@@](C)(Cc1ccccc1)C(=O)N[C@H](C(=O)N[C@@H](C)C(=O)N[C@@](C)(Cc1ccccc1)C(=O)N[C@H](C(=O)N[C@H](C(=O)N[C@@](C)(CCCCN)C(=O)NCC(=O)NCC(N)=O)C(C)C)C(C)C)[C@@H](C)CC)C(=O)O
# B2: SEQ ID NO 151 (peptide)
# peptide: H[Aib]EGS[αMeF]TSDV[αMeS]S[αMeF]LEGEAAK([Ahx-Ahx-Ahx-Stearoyl])E[αMeF]IA[αMeF]VV[αMeK]GG-NH2
# modifications: N-terminus assumed
# SMILES: CCCCCCCCCCCCCCCCCC(=O)NCCCCCC(=O)NCCCCCC(=O)NCCCCCC(=O)NCCCC[C@H](NC(=O)[C@H](C)NC(=O)[C@H](C)NC(=O)[C@H](CCC(=O)O)NC(=O)CNC(=O)[C@H](CCC(=O)O)NC(=O)[C@H](CC(C)C)NC(=O)[C@](C)(Cc1ccccc1)NC(=O)[C@H](CO)NC(=O)[C@](C)(CO)NC(=O)[C@@H](NC(=O)[C@H](CC(=O)O)NC(=O)[C@H](CO)NC(=O)[C@@H](NC(=O)[C@](C)(Cc1ccccc1)NC(=O)[C@H](CO)NC(=O)CNC(=O)[C@H](CCC(=O)O)NC(=O)C(C)(C)NC(=O)[C@@H](N)Cc1c[nH]cn1)[C@@H](C)O)C(C)C)C(=O)N[C@@H](CCC(=O)O)C(=O)N[C@@](C)(Cc1ccccc1)C(=O)N[C@H](C(=O)N[C@@H](C)C(=O)N[C@@](C)(Cc1ccccc1)C(=O)N[C@H](C(=O)N[C@H](C(=O)N[C@@](C)(CCCCN)C(=O)NCC(=O)NCC(N)=O)C(C)C)C(C)C)[C@@H](C)CC
# B3: SEQ ID NO 80 (peptide)
# peptide: H[Aib]EGS[αMeF]TSDV[αMeS]S[αMeF]LEGEAAK([γGlu-Palmitoyl])E[αMeF]IA[αMeF]VV[αMeK]GG-NH2
# modifications: N-terminus assumed
# SMILES: CCCCCCCCCCCCCCCC(=O)N[C@@H](CCC(=O)NCCCC[C@H](NC(=O)[C@H](C)NC(=O)[C@H](C)NC(=O)[C@H](CCC(=O)O)NC(=O)CNC(=O)[C@H](CCC(=O)O)NC(=O)[C@H](CC(C)C)NC(=O)[C@](C)(Cc1ccccc1)NC(=O)[C@H](CO)NC(=O)[C@](C)(CO)NC(=O)[C@@H](NC(=O)[C@H](CC(=O)O)NC(=O)[C@H](CO)NC(=O)[C@@H](NC(=O)[C@](C)(Cc1ccccc1)NC(=O)[C@H](CO)NC(=O)CNC(=O)[C@H](CCC(=O)O)NC(=O)C(C)(C)NC(=O)[C@@H](N)Cc1c[nH]cn1)[C@@H](C)O)C(C)C)C(=O)N[C@@H](CCC(=O)O)C(=O)N[C@@](C)(Cc1ccccc1)C(=O)N[C@H](C(=O)N[C@@H](C)C(=O)N[C@@](C)(Cc1ccccc1)C(=O)N[C@H](C(=O)N[C@H](C(=O)N[C@@](C)(CCCCN)C(=O)NCC(=O)NCC(N)=O)C(C)C)C(C)C)[C@@H](C)CC)C(=O)O
# B4: SEQ ID NO 82 (peptide)
# peptide: H[Aib]EGS[αMeF]TSDV[αMeS]S[αMeF]LEGEK([γGlu-Palmitoyl])A[αMeK]E[αMeF]IA[αMeF]VV[αMeK]GG-NH2
# modifications: N-terminus assumed
# SMILES: CCCCCCCCCCCCCCCC(=O)N[C@@H](CCC(=O)NCCCC[C@H](NC(=O)[C@H](CCC(=O)O)NC(=O)CNC(=O)[C@H](CCC(=O)O)NC(=O)[C@H](CC(C)C)NC(=O)[C@](C)(Cc1ccccc1)NC(=O)[C@H](CO)NC(=O)[C@](C)(CO)NC(=O)[C@@H](NC(=O)[C@H](CC(=O)O)NC(=O)[C@H](CO)NC(=O)[C@@H](NC(=O)[C@](C)(Cc1ccccc1)NC(=O)[C@H](CO)NC(=O)CNC(=O)[C@H](CCC(=O)O)NC(=O)C(C)(C)NC(=O)[C@@H](N)Cc1c[nH]cn1)[C@@H](C)O)C(C)C)C(=O)N[C@@H](C)C(=O)N[C@@](C)(CCCCN)C(=O)N[C@@H](CCC(=O)O)C(=O)N[C@@](C)(Cc1ccccc1)C(=O)N[C@H](C(=O)N[C@@H](C)C(=O)N[C@@](C)(Cc1ccccc1)C(=O)N[C@H](C(=O)N[C@H](C(=O)N[C@@](C)(CCCCN)C(=O)NCC(=O)NCC(N)=O)C(C)C)C(C)C)[C@@H](C)CC)C(=O)O
# B5: SEQ ID NO 79 (peptide)
# peptide: H[Aib]EGS[αMeF]TSDV[αMeS]S[αMeF]LEGEAA[αMeK]K([γGlu-Palmitoyl])[αMeF]IA[αMeF]VV[αMeK]GG-NH2
# modifications: N-terminus assumed
# SMILES: CCCCCCCCCCCCCCCC(=O)N[C@@H](CCC(=O)NCCCC[C@H](NC(=O)[C@](C)(CCCCN)NC(=O)[C@H](C)NC(=O)[C@H](C)NC(=O)[C@H](CCC(=O)O)NC(=O)CNC(=O)[C@H](CCC(=O)O)NC(=O)[C@H](CC(C)C)NC(=O)[C@](C)(Cc1ccccc1)NC(=O)[C@H](CO)NC(=O)[C@](C)(CO)NC(=O)[C@@H](NC(=O)[C@H](CC(=O)O)NC(=O)[C@H](CO)NC(=O)[C@@H](NC(=O)[C@](C)(Cc1ccccc1)NC(=O)[C@H](CO)NC(=O)CNC(=O)[C@H](CCC(=O)O)NC(=O)C(C)(C)NC(=O)[C@@H](N)Cc1c[nH]cn1)[C@@H](C)O)C(C)C)C(=O)N[C@@](C)(Cc1ccccc1)C(=O)N[C@H](C(=O)N[C@@H](C)C(=O)N[C@@](C)(Cc1ccccc1)C(=O)N[C@H](C(=O)N[C@H](C(=O)N[C@@](C)(CCCCN)C(=O)NCC(=O)NCC(N)=O)C(C)C)C(C)C)[C@@H](C)CC)C(=O)O
# B6: SEQ ID NO 78 (peptide)
# peptide: H[Aib]EGS[αMeF]TSDV[αMeS]S[αMeF]LEGEAA[αMeK]EK([γGlu-Palmitoyl])IA[αMeF]VV[αMeK]GG-NH2
# modifications: N-terminus assumed
# SMILES: CCCCCCCCCCCCCCCC(=O)N[C@@H](CCC(=O)NCCCC[C@H](NC(=O)[C@H](CCC(=O)O)NC(=O)[C@](C)(CCCCN)NC(=O)[C@H](C)NC(=O)[C@H](C)NC(=O)[C@H](CCC(=O)O)NC(=O)CNC(=O)[C@H](CCC(=O)O)NC(=O)[C@H](CC(C)C)NC(=O)[C@](C)(Cc1ccccc1)NC(=O)[C@H](CO)NC(=O)[C@](C)(CO)NC(=O)[C@@H](NC(=O)[C@H](CC(=O)O)NC(=O)[C@H](CO)NC(=O)[C@@H](NC(=O)[C@](C)(Cc1ccccc1)NC(=O)[C@H](CO)NC(=O)CNC(=O)[C@H](CCC(=O)O)NC(=O)C(C)(C)NC(=O)[C@@H](N)Cc1c[nH]cn1)[C@@H](C)O)C(C)C)C(=O)N[C@H](C(=O)N[C@@H](C)C(=O)N[C@@](C)(Cc1ccccc1)C(=O)N[C@H](C(=O)N[C@H](C(=O)N[C@@](C)(CCCCN)C(=O)NCC(=O)NCC(N)=O)C(C)C)C(C)C)[C@@H](C)CC)C(=O)O
# Target: GLP-1 receptor (GLP-1R) (human, UniProt P43220 24-463)
# Assay: cell-based or functional assay
cAMP Mean pM GLP-1R [pM],cAMP Primary assay EC50 GLP-1R n1 [pM],cAMP Primary assay EC50 GLP-1R n2 [pM],Binder
34.7,39,31,H[Aib]EGS[αMeF]TSDV[αMeS]S[αMeF]LEGEAAK([PEG2′-Stearoyl])E[αMeF]IA[αMeF]VV[αMeK]GG-NH2 [SEQ ID NO 152]
283,370,200,B1
18.2,22,15,B2
24,31,17,B3
2.5,3,2,B4
3.1,3.9,2.3,B5
14,18,9.3,B6

# Target: glucagon receptor (GCGR) (human, UniProt P47871 26-477)
# Assay: cell-based or functional assay
# Chain of glucagon receptor (GCGR) (P47871 26-477): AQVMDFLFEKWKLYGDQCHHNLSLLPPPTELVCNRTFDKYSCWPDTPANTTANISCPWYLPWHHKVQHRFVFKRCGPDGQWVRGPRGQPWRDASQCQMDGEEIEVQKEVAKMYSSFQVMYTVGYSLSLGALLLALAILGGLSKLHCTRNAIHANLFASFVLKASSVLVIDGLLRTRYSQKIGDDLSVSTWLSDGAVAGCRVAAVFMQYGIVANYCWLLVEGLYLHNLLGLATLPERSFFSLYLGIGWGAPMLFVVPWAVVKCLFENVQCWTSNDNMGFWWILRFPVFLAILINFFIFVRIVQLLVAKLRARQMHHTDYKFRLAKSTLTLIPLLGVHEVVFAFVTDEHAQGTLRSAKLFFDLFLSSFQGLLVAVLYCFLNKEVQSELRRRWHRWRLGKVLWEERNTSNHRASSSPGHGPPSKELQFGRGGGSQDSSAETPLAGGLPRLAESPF
cAMP Primary assay EC50 Gluc-R [nM],cAMP Primary assay EC50 Gluc-R (2nd) [nM],Binder
28,28,H[Aib]EGS[αMeF]TSDV[αMeS]S[αMeF]LEGEAAK([PEG2′-Stearoyl])E[αMeF]IA[αMeF]VV[αMeK]GG-NH2 [SEQ ID NO 152]
27,27,B1
26,26,B2
28,28,B3
27,27,B4
28,28,B5
28,28,B6

# Target: T1, glucose-dependent insulinotropic …
# Assay: cell-based or functional assay
cAMP Primary assay EC50 GIP-R [nM],cAMP Primary assay EC50 GIP-R (2nd) [nM],Binder
28,28,H[Aib]EGS[αMeF]TSDV[αMeS]S[αMeF]LEGEAAK([PEG2′-Stearoyl])E[αMeF]IA[αMeF]VV[αMeK]GG-NH2 [SEQ ID NO 152]
27,27,B1
26,26,B2
28,28,B3
27,27,B4
28,28,B5
28,28,B6
